In doi:10.1101/2024.04.19.590298 (bioRxiv, 2024):

Legend:
[1] = biological target: T1, recombinant SARS-CoV-2 nucleocapsid protein (SARS-CoV-2 (reference sequence …, UniProt P0DTC9)); experiment: ELISA; peptide competition ELISA: plate coated with 0.1 ug/ml recombinant NP overnight at 4°C; 40 μL mBG17 pre-incubated 1 h at room temperature with 40 μg (approximately 30 nMol) of a single peptide, then applied to the plate 1 h at room temperature; goat anti-mouse HRP, A450; triplicate; conditions: both partners purified
T1 construct: SARS-CoV-2 nucleocapsid protein; also called NP; SARS-CoV-2 NP

[2] = biological target: T2, Nucleocapsid a. a. 401–410 (Frag 5) (SARS-CoV-2 (YP_009724397 reference)); experiment: as above; conditions: both partners purified
T2 construct: SARS-CoV-2 nucleocapsid protein, residues 401-410; also called Fragment 5; WT (a.a. 401–410) peptide; source: synthetic peptide (Thermo Scientific)
T2 chain: DDFSKQLQQS

B1: anti-SARS-CoV-2 nucleocapsid protein (NP) monoclonal mouse antibody mBG17 (recombinant) (antibody, V domains shown)
VH: EVKLEESGGGLVQPGGSMKFSCVASGFTFSDYWMNWVRQSPDKGLEWVAEIRLKSNNYATHYAASVKGRFTISRDDSKSSVYLQMNNLRAEDSGIYYCTRSAMDYWGQGTSVTVSS
VL: DIVMSQSPSSLAVSVGEKITMSCKSSQSLLYTSDQKNYLAWFQQKPGQSPKLLIFWASTRDSGVPDRFTGSGSGTDFTLTISSVKAEDLAVYYCQQFYNYPRTFGGGTKLEIK
notes: Whole antibody, detected with goat anti-mouse HRP; The scFv forms were used in calculations only; also called recombinant mBG17
B1: binds [1]; binds [2].
